Data published in doi:10.1101/2020.05.01.070730 (bioRxiv, 2020).
Residue numbers refer to the chain shown, from its start.

B1: dsDNA (dsDNA)
DNA 1: ATGTGAATCAGTATGGTTACTATCTGCTGAAGGAAAT
DNA 2: ATTTCCTTCAGCAGATAGTAACCATACTGATTCACAT
B2: pDNA (AT) (dsDNA)
DNA 1: ATGTGAATCAGTATGGTTACTATCTGC
DNA 2: B1 DNA 2
B3: GT-dsDNA (GT 18 nt from 3' end) (dsDNA)
DNA 1: B1 DNA 1 with A19G
DNA 2: B1 DNA 2
B4: GT-pDNA (GT 8 nt from 3'-OH) (dsDNA)
DNA 1: ATGTGAATCAGTATGGTTGCTATCTGC
DNA 2: B1 DNA 2

molecular target: T1, MutS R842E (Pseudomonas aeruginosa, UniProt Q9HY08 1-855, R842E); test: native PAGE shift
T1 sequence: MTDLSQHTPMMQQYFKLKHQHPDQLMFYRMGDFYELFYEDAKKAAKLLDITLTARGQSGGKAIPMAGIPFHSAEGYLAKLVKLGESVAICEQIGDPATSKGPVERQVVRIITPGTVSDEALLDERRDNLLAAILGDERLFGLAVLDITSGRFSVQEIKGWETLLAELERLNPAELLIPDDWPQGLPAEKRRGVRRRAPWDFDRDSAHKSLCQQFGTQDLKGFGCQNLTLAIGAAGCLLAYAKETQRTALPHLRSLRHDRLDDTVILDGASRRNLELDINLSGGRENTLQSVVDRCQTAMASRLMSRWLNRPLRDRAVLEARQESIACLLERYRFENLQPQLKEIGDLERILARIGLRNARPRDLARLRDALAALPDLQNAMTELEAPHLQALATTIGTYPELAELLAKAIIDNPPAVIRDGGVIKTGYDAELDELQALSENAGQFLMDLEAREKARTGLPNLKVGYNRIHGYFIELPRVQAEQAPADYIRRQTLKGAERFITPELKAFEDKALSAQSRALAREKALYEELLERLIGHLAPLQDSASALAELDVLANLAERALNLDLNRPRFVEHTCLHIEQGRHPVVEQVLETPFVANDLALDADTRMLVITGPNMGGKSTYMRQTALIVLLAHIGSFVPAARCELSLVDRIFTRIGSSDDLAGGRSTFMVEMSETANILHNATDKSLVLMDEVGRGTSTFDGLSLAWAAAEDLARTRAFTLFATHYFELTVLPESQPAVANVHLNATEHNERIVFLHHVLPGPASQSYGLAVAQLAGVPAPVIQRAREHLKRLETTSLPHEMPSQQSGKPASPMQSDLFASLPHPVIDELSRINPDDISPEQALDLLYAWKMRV

Binder | binding result
B1 | binds
B2 | binds
B3 | binds

molecular target: T2, MutS N279A (Pseudomonas aeruginosa, UniProt Q9HY08 1-855, N279A); test: EMSA
T2 sequence: T1 sequence with N279A, E842R

Binder | Kd [nM]
B4 | 63.2 ± 2.4
B1 | 358 ± 36.9
B2 | 430 ± 18
B3 | 41.3 ± 5.2

molecular target: T3, MutS R272A (Pseudomonas aeruginosa, UniProt Q9HY08 1-855, R272A); test: EMSA
T3 sequence: T1 sequence with R272A, E842R

Binder | Kd [nM]
B4 | 49.3 ± 1
B1 | 309 ± 20.9
B2 | 143 ± 8.6
B3 | 38.2 ± 0.7
